# Assay results taken from patent publication US20240158474A1 (SINO BIOLOGICAL, published 2024).
# T1: HPV33 VLP protein (human papillomavirus type 33, UniProt P06416 1-499)
# T1 construct: Complete VLP protein; no limits of the construct printed, whole entry named; also called HPV33L1
# T1 sequence: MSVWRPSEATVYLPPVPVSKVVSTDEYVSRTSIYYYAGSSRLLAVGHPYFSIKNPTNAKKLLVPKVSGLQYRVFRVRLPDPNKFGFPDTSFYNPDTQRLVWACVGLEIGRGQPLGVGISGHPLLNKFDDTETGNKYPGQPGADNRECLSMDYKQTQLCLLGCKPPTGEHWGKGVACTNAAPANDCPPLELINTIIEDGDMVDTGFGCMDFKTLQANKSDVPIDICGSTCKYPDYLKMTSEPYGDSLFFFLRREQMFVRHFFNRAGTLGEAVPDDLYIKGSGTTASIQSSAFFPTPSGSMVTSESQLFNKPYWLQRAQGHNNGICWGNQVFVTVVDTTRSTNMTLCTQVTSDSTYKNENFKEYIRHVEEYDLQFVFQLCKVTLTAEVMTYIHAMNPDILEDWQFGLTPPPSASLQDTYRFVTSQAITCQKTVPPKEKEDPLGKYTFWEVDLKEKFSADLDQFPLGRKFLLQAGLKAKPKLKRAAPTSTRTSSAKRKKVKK
# T2: HPV45 VLP protein (human papillomavirus type 45; human …, UniProt P36741 1-478; P06416 474-499)
# T2 construct: range 1-478;range 474-499; Complete VLP protein used as coating protein; also called HPV45L1(1-478L)+HPV33L1(474K-499K)
# T2 sequence: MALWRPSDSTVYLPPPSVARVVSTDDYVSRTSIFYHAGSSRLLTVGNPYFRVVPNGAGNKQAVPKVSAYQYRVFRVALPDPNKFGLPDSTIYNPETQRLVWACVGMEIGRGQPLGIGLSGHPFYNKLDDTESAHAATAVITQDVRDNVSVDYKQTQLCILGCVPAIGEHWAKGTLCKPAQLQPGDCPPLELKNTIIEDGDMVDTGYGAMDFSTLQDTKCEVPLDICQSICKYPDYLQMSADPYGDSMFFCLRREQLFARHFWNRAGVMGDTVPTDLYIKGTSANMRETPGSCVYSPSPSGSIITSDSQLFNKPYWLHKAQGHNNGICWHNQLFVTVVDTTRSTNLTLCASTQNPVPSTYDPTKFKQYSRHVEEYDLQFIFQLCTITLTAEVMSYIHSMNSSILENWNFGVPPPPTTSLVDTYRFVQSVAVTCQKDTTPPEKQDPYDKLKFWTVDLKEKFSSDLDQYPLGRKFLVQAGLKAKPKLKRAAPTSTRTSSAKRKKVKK
# T3: HPV11 VLP protein (human papillomavirus type 11; human …, UniProt P04012 1-470; P06416 474-499)
# T3 construct: range 1-470;range 474-499; Complete VLP protein used as coating protein
# T3 sequence: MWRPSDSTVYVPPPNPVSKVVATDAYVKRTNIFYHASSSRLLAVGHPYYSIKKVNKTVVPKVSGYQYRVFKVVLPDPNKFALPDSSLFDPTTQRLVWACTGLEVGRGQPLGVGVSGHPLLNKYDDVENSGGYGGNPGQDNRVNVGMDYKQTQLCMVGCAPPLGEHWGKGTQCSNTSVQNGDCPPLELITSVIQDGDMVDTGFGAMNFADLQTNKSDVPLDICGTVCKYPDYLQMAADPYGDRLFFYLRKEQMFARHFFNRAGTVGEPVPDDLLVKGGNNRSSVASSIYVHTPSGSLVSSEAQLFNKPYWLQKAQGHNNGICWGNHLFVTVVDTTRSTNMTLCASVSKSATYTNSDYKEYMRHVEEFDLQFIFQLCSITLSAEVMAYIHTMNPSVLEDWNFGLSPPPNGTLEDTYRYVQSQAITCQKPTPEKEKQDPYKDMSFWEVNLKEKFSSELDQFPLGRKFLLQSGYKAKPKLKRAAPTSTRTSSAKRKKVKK
# T4: HPV16 VLP protein (human papillomavirus type 16, UniProt P03101 1-474)
# T4 construct: Complete VLP protein; no limits of the construct printed, whole entry named; also called HPV-16L1
# T4 sequence: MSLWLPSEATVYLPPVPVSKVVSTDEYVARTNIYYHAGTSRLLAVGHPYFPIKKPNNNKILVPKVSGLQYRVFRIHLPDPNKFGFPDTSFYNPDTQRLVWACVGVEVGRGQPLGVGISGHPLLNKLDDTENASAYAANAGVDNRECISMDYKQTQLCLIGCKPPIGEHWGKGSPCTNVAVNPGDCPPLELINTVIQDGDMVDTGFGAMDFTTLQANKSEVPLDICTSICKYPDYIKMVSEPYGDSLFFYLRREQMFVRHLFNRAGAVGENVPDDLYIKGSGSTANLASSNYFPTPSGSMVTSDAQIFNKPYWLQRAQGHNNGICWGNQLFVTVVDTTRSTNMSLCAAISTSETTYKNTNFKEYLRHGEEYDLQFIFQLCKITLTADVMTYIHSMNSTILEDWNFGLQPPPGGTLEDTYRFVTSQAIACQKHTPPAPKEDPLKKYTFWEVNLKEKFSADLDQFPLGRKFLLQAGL
# Experiments:
# Test in all cases: indirect ELISA, VLP coated at 2 µg/mL, antibody 10 ng/mL, HRP goat anti-rabbit Fc
# HPV33 VLP protein = biological target: T1, HPV33 VLP protein
# HPV45 VLP protein = biological target: T2, HPV45 VLP protein
# HPV18 VLP protein = biological target: T5, HPV18 VLP protein (human papillomavirus type 18)
# T5 construct: Complete VLP protein; no limits of the construct printed, whole entry named; also called P18SHELL
# HPV11 VLP protein = biological target: T3, HPV11 VLP protein
# HPV16 VLP protein = biological target: T4, HPV16 VLP protein
binder,measurement,setting,value
"monoclonal antibody HPV6-R003 (antibody, V domains shown, here built from variable plus constant region so that the signal peptides are left out; In the sandwich ELISA the same antibody is used as coating antibody and, labelled with horseradish peroxidase, as detection antibody; also called anti-HPV6 L1 protein antibody) VH: QQQLEESGGGLVKPGGTLTLTCKASGIDLSNYYMCWVRQAPGKGLEWIGCIYTGSGRTYYASWAKGRFTISKASSTTVTLQMTSLTAADTATYFCARDYLGWRASNIWGPGTLVTVSS VL: ELVMTQTPSSVSAAVGGTVTINCQASQSVYSNNLVWYQQKPGQPPKLLIYGASTLASGVPSRFKGSGSGTQFTLTISDVVCDDAATYYCGGYVSDSTDGTAFGGGTEVVVKG",OD450-blank,HPV33 VLP protein,0.047 OD450
same,OD450-blank,HPV45 VLP protein,0.061 OD450
same,OD450-blank,HPV18 VLP protein,0.045 OD450
same,OD450-blank,HPV11 VLP protein,0.053 OD450
same,OD450-blank,HPV16 VLP protein,0.048 OD450
